# Assays:
# [1] = target: recombinant soluble human CD4 (human) (UniProt P01730); experiment: BIAcore; rCD4 coupled to chip, mAb flowed (avidity)
# [2] = target: recombinant soluble human CD4 (human) (UniProt P01730); experiment: SPR sensor chip; sCD4 amine-coupled, antibody flowed over
substance,measurement,setting,value
mouse anti-human CD4 monoclonal antibody Leu3a (Becton Dickinson),Ka,[1],3.7e+10 M⁻¹
same,koff,[1],4.2e-06 s⁻¹
same,kon,[1],150000 M⁻¹ s⁻¹
same,Ka,[2],3.7e+10 M⁻¹
same,koff,[2],4.2e-05 s⁻¹
same,kon,[2],150000 M⁻¹ s⁻¹
